Measured values from paper PMC6546747, “Wwp2 maintains cartilage homeostasis through regulation of Adamts5” (Nature Communications, 2019).

Target: T1, Wwp2 protein purified from transfected HEK293T cells (in vitro pull-down) (mouse, UniProt Q9DBH0 1-870)
T1 construct: Wwp2; plasmids were built from full-length cDNA NM_025830.3; source: HEK293T, transfected, purified (tagged protein magnetic purification kit)
Test: pull-down; in vitro pull-down using His-tag (Dynabeads His-Tag Isolation and Pulldown); proteins purified from transfected HEK293T cells
Conditions: both partners purified

T1 sequence (Q9DBH0 whole entry): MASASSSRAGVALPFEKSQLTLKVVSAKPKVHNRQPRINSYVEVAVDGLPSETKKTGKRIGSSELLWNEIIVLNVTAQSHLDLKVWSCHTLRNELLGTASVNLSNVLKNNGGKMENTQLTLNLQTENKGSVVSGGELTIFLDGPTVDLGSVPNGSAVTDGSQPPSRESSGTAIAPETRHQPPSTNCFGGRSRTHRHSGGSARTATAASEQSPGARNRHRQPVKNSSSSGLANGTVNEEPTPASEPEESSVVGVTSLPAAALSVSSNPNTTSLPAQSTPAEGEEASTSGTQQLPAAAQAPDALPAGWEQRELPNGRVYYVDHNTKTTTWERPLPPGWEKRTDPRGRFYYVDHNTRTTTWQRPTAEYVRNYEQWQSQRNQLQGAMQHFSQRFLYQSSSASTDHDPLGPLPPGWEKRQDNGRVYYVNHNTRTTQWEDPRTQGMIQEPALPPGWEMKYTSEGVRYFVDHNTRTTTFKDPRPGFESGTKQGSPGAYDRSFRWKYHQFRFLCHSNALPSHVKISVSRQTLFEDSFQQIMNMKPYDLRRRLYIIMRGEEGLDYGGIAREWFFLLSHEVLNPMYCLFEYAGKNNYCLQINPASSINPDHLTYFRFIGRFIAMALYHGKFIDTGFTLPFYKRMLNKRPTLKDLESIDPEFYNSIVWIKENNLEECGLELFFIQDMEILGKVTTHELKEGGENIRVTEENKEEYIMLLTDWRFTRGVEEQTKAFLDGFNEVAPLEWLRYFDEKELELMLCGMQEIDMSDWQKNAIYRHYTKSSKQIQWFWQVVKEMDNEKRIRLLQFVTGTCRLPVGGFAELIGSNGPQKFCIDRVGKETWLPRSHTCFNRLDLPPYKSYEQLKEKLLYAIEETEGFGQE

binding result: binds
B1: Runx2 protein purified from transfected HEK293T cells (in vitro pull-down) (natural protein, mouse, UniProt Q08775-5 1-528, looked up)
chain: MASNSLFSAVTPCQQSFFWDPSTSRRFSPPSSSLQPGKMSDVSPVVAAQQQQQQQQQQQQQQQQQQQQQQQQQQQQQEAAAAAAAAAAAAAAAAAAVPRLRPPHDNRTMVEIIADHPAELVRTDSPNFLCSVLPSHWRCNKTLPVAFKVVALGEVPDGTVVTVMAGNDENYSAELRNASAVMKNQVARFNDLRFVGRSGRGKSFTLTITVFTNPPQVATYHRAIKVTVDGPREPRRHRQKLDDSKPSLFSDRLSDLGRIPHPSMRVGVPPQNPRPSLNSAPSPFNPQGQSQITDPRQAQSSPPWSYDQSYPSYLSQMTSPSIHSTTPLSSTRGTGLPAITDVPRRISDDDTATSDFCLWPSSLSKKSQAGASELGPFSDPRQFPSISSLTESRFSNPRMHYPATFTYTPPVTSGMSLGMSATTHYHTYLPPPYPGSSQSQSGPFQTSSTPYLYYGTSSASYQFPMVPGGDRSPSRMVPPCTTTSNGSTLLNPNLPNQNDGVDADGSHSSSPTVLNSSGRMDESVWRPY
notes: Runx2; plasmids were built from full-length cDNA NM_001146038.2; source: HEK293T, transfected, purified (tagged protein magnetic purification kit)
